Article PMC12202928, “Bidirectional interdomain crosstalk in a Porphyromonas gingivalis chimeric enzyme coordinates catalytic synergy for aromatic amino acid biosynthesis” (Frontiers in Microbiology, 2025)

B1: PgiDAH7PS-CM (bifunctional 3-deoxy-D-arabino heptulosonate-7-phosphate synthase / chorismate mutase from Porphyromonas gingivalis) (enzyme, UniProt B2RJM7 1-366, looked up)
chain: MKYCDFTPLPLPSEPNTTVIAGPCSAESEEQIMTTARALRDEAGIRIFRAGLWKPRTLPGCFEGVGETGLPWLVRVQDELDMLATTEVATREHVEQAMQAGIRILWLGARTTSNPFAVQEIADTIGKDESVIVLVKNPISPDLDLWTGALERLRQSGVRQIGAIHRGFSTYATKTFRNPPHWQIPFDLKRRFPSLTILCDPSHITGQRDRIESVSQQAMEMNFDGLIIESHCCPDKALSDASQQITPTVLAQILRRLRIPRRQSEKQDEELISWRMQIDQIDESIVELLARRMQVAYEIGLFKKEHNLAVVQNLRYEQLQRNRARTAALLGLDETFISELFSRIHEESVRLQTLAPQKPHTDDCIS
notes: PgiDAH7PS-CM, Porphyromonas gingivalis, UniProt B2RJM7, 366 amino acid residues; DAH7PS domain 17-253, 11-residue linker, CM domain 265-356; codon-optimised synthetic gene in pET28a; Homodimer by analytical SEC (68 ± 6 kDa against a theoretical monomer of 42 kDa); also called full-length PgiDAH7PS-CM; PgiDAH7PS^WT; source: E. coli BL21 (DE3), purified (HisTrap HP, TEV digestion, second HisTrap); …
B2: PgiCM (separated CM domain of PgiDAH7PS-CM) (domain or fragment, Porphyromonas gingivalis, UniProt B2RJM7 259-366, looked up)
chain: IPRRQSEKQDEELISWRMQIDQIDESIVELLARRMQVAYEIGLFKKEHNLAVVQNLRYEQLQRNRARTAALLGLDETFISELFSRIHEESVRLQTLAPQKPHTDDCIS
notes: C-terminal part of PgiDAH7PS-CM, Porphyromonas gingivalis, UniProt B2RJM7, split between R258 and I259; theoretical monomer MW 13 kDa; source: E. coli BL21 (DE3), purified (HisTrap HP, TEV digestion, second HisTrap); not shown: His6, N-terminal, cleaved

Target: the molecule itself
Test: SEC; analytical SEC on ENrich SEC 650 calibrated with mass standards; 50 mM BTP pH 7.4, 4°C, protein loaded at 1 mg/mL, 0.2 mL/min; apparent mass compared with theoretical monomer mass

Row | Protein | stoichiometry N
1 | B1 | 2
2 | B2 | 2
